# Source: publication PMC11441981
# B1: GST-tagged CG9590 (Drosophila FAM114A) [Drosophila] / Vap33 [Drosophila (endogenous in S2 cells)] (parent)
# chain 1: MAKNPKKEEDGGNDWAQSDEDDNWDDWGDDDDKFVHVEKEQQPQEKVSSRNDAKGTAENQEKLETPRISAPATASATSSSWGLWGGKLSSVLTTATEGLGTITTQVNQGLNQIIGVPDPEELARINVAEKAEKAAKAPPEENVDDEKESSAAFGLDFVTNLGSKVLNTGLDTLEGIGKKTMTILQDNDPKLMNKRKLLGLEANSPNLSAVLLEAKKEADQMEQSLQQLQLKRQKAQLRFEILFENYCGLVHFEALEILSKESRLKLDTLLDAVSGNARAELQETINEVKELIELEDLDVESEGDYEAEELSERLAATIKDAELGIQFDDIANHWTQSLSWLTSEEATAADLEQAYAKSIHALSEACALEMCKLHKIAELLLVKPHHSTANEVDGVVNLCQQFNGHLQGLSHRFAAVLSGKSETEESKGRVSTFFSEMLSAVQFIEKAYKLFTPILQMGAV
# chain 2: MSKSLFDLPLTIEPEHELRFVGPFTRPVVTIMTLRNNSALPLVFKIKTTAPKRYCVRPNIGKIIPFRSTQVEICLQPFVYDQQEKNKHKFMVQSVLAPMDADLSDLNKLWKDLEPEQLMDAKLKCVFEMPTAEANAENTSGGGAVGGGTGAAGGGSAGANTSSASAEALESKPKLSSEDKFKPSNLLETSESLDLLSGEIKALRECNIELRRENLHLKDQITRFRSSPAVKQVNEPYAPVLAEKQIPVFYIAVAIAAAIVSLLLGKFFL
# Variants of: B1
# Experiment: GST pull-down from S2 cell lysate with mass spectrometry (volcano plot of spectral intensities)
# Details: three biological replicates, read off a plot
row,Variant,screen value [log2]
1,chain 1 W24A W27A,5.2
